Data published in patent US7122636.
Residue numbers refer to the chain shown, from its start. Read-outs that look alike come from different tables or passages of the source.

T1: recombinant human IL-8, (ser-IL-8)72 (human, UniProt P10145 28-99)
T1 sequence (looked up): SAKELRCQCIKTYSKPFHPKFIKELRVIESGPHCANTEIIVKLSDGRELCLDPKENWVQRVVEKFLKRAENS

T2: PF4 (UniProt P02776 32-101)
T2 construct: also called platelet factor 4
T2 sequence (looked up): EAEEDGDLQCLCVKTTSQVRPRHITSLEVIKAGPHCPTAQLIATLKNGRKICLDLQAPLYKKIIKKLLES

T3: β-TG (UniProt P02775 48-128)
T3 construct: also called b-TG
T3 sequence (looked up): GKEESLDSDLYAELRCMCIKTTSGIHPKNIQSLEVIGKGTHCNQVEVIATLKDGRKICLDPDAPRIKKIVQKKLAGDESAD

B1: 6G4V11N35A Fab (Fab, V domains shown)
VH: EVQLVQSGGGLVQPGGSLRLSCAASGYSFSSHYMHWVRQAPGKGLEWVGYIDPSNGETTYNQKFKGRFTLSRDNSKNTAYLQMNSLRAEDTAVYYCARGDYRYNGDWFFDVWGQGTLVTVSS
VL: DIQMTQSPSSLSASVGDRVTITCRSSQSLVHGIGATYLHWYQQKPGKAPKLLIYKVSNRFSGVPSRFSGSGSGTDFTLTISSLQPEDFATYYCSQSTHVPLTFGQGTKVEIKR
B2: humanized 6G425 F(ab)-1 (Fab, V domains shown)
VH: EVQLVESGGGLVQPGGSLRLSCAASGYSFSSHYMHWVRQAPGKGLEWVGYIDPSNGETTYNQKFKGRFTISRDNSKNTLYLQMNSLRAEDTAVYYCAARGDYRYNGDWFFDVWGQGT
VL: DIQMTQSPSSLSASVGDRVTITCRSSQSLVHGIGNTYLHWYQQKPGKAPKLLIYYKVSNRFSGVPSRFSGSGSGTDFTLTISSLQPEDFATYYCSQSTHVPLTFGQGTKVEIKR
notes: Fab with human kappa I and human IgG1 CH1 constant domains; also called version 1; V1
B3: humanized 6G425 F(ab)-2 (Fab, V domains shown)
VH: B2 VH with F68A
VL: B2 VL
notes: template F(ab)-1; also called version 2
B4: humanized 6G425 F(ab)-3 (Fab, V domains shown)
VH: B2 VH with R72V
VL: B2 VL
notes: template F(ab)-1; also called version 3
B5: anti-IL-8 monoclonal antibody 5.12.14 (antibody, mouse IgG2a, V domains shown)
VH: EVQLVESGGGLVPPGGSLKLSCAASGFIFSSYGMSWVRQTPGKSLELVATINNNGDSTYYPDSVKGRFTISRDNAKNTLYLQMSSLKSEDTAMFYCARALISSATWFGYWGQGTLVTVSA
VL: DIVMTQSQKFMSTSVGDRVSVTCKASQNVGTNVAWYQQKPGQSPKALIYSSSYRYSGVPDRFTGSGSGTDFTLTISHVQSEDLADYFCQQYNIYPLTFGPGTKLELKR
notes: mouse IgG2a from hybridoma ATCC HB 11553

Assays:
[1] = biological target: T1, recombinant human IL-8, (ser-IL-8)72; experiment: cell-based or functional assay
[2] = biological target: T1, recombinant human IL-8, (ser-IL-8)72; experiment: 125I-IL-8 binding to human neutrophils, competition
[3] = biological target: T1, recombinant human IL-8, (ser-IL-8)72; experiment: 125I-IL-8 binding to human neutrophils, competition; against the chimeric F(ab)
[4] = biological target: T1, recombinant human IL-8, (ser-IL-8)72; experiment: 125I-IL-8 binding to human neutrophils, competition; remark: listed apart in the source
[5] = biological target: T1, recombinant human IL-8, (ser-IL-8)72; experiment: 125I-IL-8 binding to human neutrophils, competition; against F(ab)-1
PF4 = biological target: T2, PF4; experiment: cross reactivity test
β-TG = biological target: T3, β-TG; experiment: cross reactivity test

Binder	IC50 [4] [nM]	fold decrease in IL-8 binding [5] [fold]	further results
B1	–	–	IC50, neutrophil chemotaxis [1]: 2.7 nM
B2	63	–	IC50 [2]: 40 nM; fold reduction in binding affinity [3]: 5.5 fold
B3	106	< 2	–
B4	79.8	< 2	–
B5	–	–	binding result (PF4): no binding; binding result (β-TG): no binding
